Measurements as given in patent US20200390870A1 (MINERVA BIOTECHNOLOGIES, published 2020).
One block for each molecule: values may come before it.

T1: PSMGFR peptide (Primary Sequence of the MUC1 Growth Factor Receptor)
T1 construct: synthetic peptide, immobilized on ELISA plates or attached to beads; also called MUC1* peptide; synthetic MUC1* extra cellular domain peptide
T1 peptide: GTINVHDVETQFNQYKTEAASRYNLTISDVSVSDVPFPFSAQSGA

T2: PSMGFR minus 10 amino acids from the N-terminus
T2 construct: also called N-10; N-10 PSMGFR
T2 peptide: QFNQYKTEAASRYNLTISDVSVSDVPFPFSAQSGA

T3: NME7-AB (human, UniProt Q9Y5B8 92-376)
T3 construct: also called NM23-H7
T3 sequence: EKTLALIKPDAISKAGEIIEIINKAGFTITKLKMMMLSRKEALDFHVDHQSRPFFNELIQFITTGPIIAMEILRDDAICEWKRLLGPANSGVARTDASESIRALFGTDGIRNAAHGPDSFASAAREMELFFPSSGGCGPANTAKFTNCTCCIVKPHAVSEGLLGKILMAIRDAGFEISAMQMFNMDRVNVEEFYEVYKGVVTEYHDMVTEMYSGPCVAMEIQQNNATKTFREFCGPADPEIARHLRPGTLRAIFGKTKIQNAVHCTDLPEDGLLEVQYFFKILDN

B1: humanized MN-E6 scFv (scFv, V domains shown, not shown: small tags and cut ends)
VH: EVQLVESGGGLVKPGGSLRLSCAASGFTFSRYGMSWVRQAPGKRLEWVSTISGGGTYIYYPDSVKGRFTISRDNAKNTLYLQMNSLRAEDTAVYYCTRDNYGRNYDYGMDYWGQGTLVTVSS
VL: EIVLTQSPATLSLSPGERATLTCSATSSVSYIHWYQQRPGQSPRLLIYSTSNLASGIPARFSGSGSGSDYTLTISSLEPEDFAVYYCQQRSSSPFTFGSGTKVEIK
notes: several humanized MN-E6 single chain proteins were generated; the one in the assays is not identified; also called hu MN-E6 scFv
B2: CAR44 huMNC2-CD8-4-1BB-CD3z (other)
chain: EVQLVESGGGLVKPGGSLRLSCAASGFTFSGYAMSWVRQAPGKGLEWVSTISSGGTYIYYPDSVKGRFTISRDNAKNSLYLQMNSLRAEDTAVYYCARLGGDNYYEYFDVWGKGTTVTVSSGGGGSGGGGSGGGGSDIVLTQSPASLAVSPGQRATITCRASKSVSTSGYSYMHWYQQKPGQPPKLLIYLASNLESGVPARFSGSGSGTDFTLTINPVEANDTANYYCQHSRELPFTFGGGTKVEIKRTTTTPAPRPPTPAPTIASQPLSLRPEACRPAAGGAVHTRGLDFACDIYIWAPLAGTCGVLLLSLVITLYCKRGRKKLLYIFKQPFMRPVQTTQEEDGCSCRFPEEEEGGCELRVKFSRSADAPAYKQGQNQLYNELNLGRREEYDVLDKRRGRDPEMGGKPRRKNPQEGLYNELQKDKMAEAYSEIGMKGERRRGKGHDGLYQGLSTATKDTYDALHMQALPPR
notes: also called huMNC2-CAR44; huMNC2-scFv-CAR44
B3: mouse monoclonal antibody MN-C3 (antibody, V domains shown)
VH: QVQLQQSGPELVRPGVSVKISCKGSGYRFTDYAMNWVKQSHAKSLEWIGVISTFSGNTNFNQKFKGKATMTVDKSSSTAYMELARLTSEDSAMYYCARSDYYGPYFDYWGQGTTLTVSS
VL: DVLMTQTPLSLPVSLGDQASISCRSSQTIVHSNGNTYLEWYLQKPGQSPKLLIYKVSNRFSGVPDRFSGSGSGTDFTLKINRVEAEDLGVYYCFQGSHVPFTFGSGTKLEIK
notes: mouse monoclonal; also called Min-C3
B4: mouse monoclonal antibody MN-C2 (antibody, V domains shown)
VH: EVQLEESGGGLVKPGGSLKLSCAASGFTFSGYAMSWVRQTPEKRLEWVATISSGGTYIYYPDSVKGRFTISRDNAKNTLYLQMSSLRSEDTAMYYCARLGGDNYYEYFDVWGAGTTVTVSS
VL: DIVITQSTASLGVSLGQRATISCRASKSVSTSGYSYMHWYQQRPGQPPKLLIYLASNLESGVPARFSGSGSGTDFTLNIHPVEEEDAATYYCQHSRELPFTFGGGTKLEIKR
notes: mouse monoclonal; also called Min-C2
B5: PSMGFR minus 10 amino acids from the C-terminus (peptide)
peptide: GTINVHDVETQFNQYKTEAASRYNLTISDVSVSDV
notes: also called C-10; C-10 PSMGFR
B6: humanized MN-C3 antibody (antibody, V domains shown)
VH: QVQLVQSGAEVKKPGASVKVSCKASGYTFTDYAMNWVRQAPGQGLEWMGVISTFSGNTNFNQKFKGRVTMTTDTSTSTAYMELRSLRSDDTAVYYCARSDYYGPYFDYWGQGTTLTVSS
VL: DIVMTQTPLSLSVTPGQPASISCRSSQTIVHSNGNTYLEWYLQKPGQSPQLLIYKVSNRFSGVPDRFSGSGSGTDFTLKISRVEAEDVGVYYCFQGSHVPFTFGGGTKVEIKR
notes: tested impure; also called Impure humanized MN-C3 antibody
B7: CAR50 (MNC2 scFv, CD4 transmembrane domain, 41BB-3zeta) (other)
chain: EVQLVESGGGLVKPGGSLRLSCAASGFTFSGYAMSWVRQAPGKGLEWVSTISSGGTYIYYPDSVKGRFTISRDNAKNSLYLQMNSLRAEDTAVYYCARLGGDNYYEYFDVWGKGTTVTVSSGGGGSGGGGSGGGGSDIVLTQSPASLAVSPGQRATITCRASKSVSTSGYSYMHWYQQKPGQPPKLLIYLASNLESGVPARFSGSGSGTDFTLTINPVEANDTANYYCQHSRELPFTFGGGTKVEIKRTSGQVLLESNIKVLPTWSTPVQPMALIVLGGVAGLLLFIGLGIFFKRGRKKLLYIFKQPFMRPVQTTQEEDGCSCRFPEEEEGGCELRVKFSRSADAPAYKQGQNQLYNELNLGRREEYDVLDKRRGRDPEMGGKPRRKNPQEGLYNELQKDKMAEAYSEIGMKGERRRGKGHDGLYQGLSTATKDTYDALHMQALPPR
notes: chimeric antigen receptor on transduced human T cells; also called huMNC2-CAR50; huMNC2-scFv-CAR50
B8: humanized MN-C2 scFv (scFv, V domains shown)
VH: EVQLVESGGGLVKPGGSLRLSCAASGFTFSGYAMSWVRQAPGKGLEWVSTISSGGTYIYYPDSVKGRFTISRDNAKNSLYLQMNSLRAEDTAVYYCARLGGDNYYEYFDVWGKGTTVTVSS
VL: DIVLTQSPASLAVSPGQRATITCRASKSVSTSGYSYMHWYQQKPGQPPKLLIYLASNLESGVPARFSGSGSGTDFTLTINPVEANDTANYYCQHSRELPFTFGGGTKVEIKR
notes: several humanized MN-C2 single chain proteins were generated; the one in the assays is not identified; also called huMN-C2 scFv; hMN-C2 scFv; not shown: 6x His tag, detected in the flow cytometry assay
B9: mouse monoclonal antibody MN-E6 (antibody, V domains shown)
VH: EVKVVESGGDLVKPGGSLKLSCVVSGFTFSRYGMSWVRQTPGKRLEWVATISGGGTYIYYPDSVKGRFTISRDNAKNTLYLQMSSLKSEDTAMYHCTRDNYGRNYDYGMDYWGQGTSVTVSS
VL: QIVLTQSPAIMSASPGEEVTLTCSATSSVSYIHWFQQRPGTSPKLWIYSTSNLASGVPVRFSGSGYGTSYSLTISRMEAEDAATYYCQQRSSSPFTFGSGTKLEIK
notes: mouse monoclonal; also called Min-E6

Key:
[1] = target: MUC1-41TR (MUC1 with an extracellular domain truncated after 41 tandem repeats) (Homo sapiens (Human)) (UniProt P15941); test: FACS on HCT-MUC1-41TR cells
[2] = target: T1, PSMGFR peptide (Primary Sequence of the …); test: ELISA on PSMGFR peptide
Excerpt: FIGS. 21A-21B show an ELISA graph of several anti-MUC1* scFv-Fc fusion proteins wherein the Fc region has been eliminated or mutated. Shown are hu MN-E6 scFv-Fc-wt, hu MN-E6 scFv-Fc-Y407R, hu MN-E6 scFv-Fc-hingeless, and hu MN-E6 scFv-Fc-Y407R-hingeless. All mutants bind to the PSMGFR peptide of the MUC1* extracellular domain (A). An ELISA graph of several anti-MUC1* scFv-Fc fusion proteins wherein the Fc region is either wild type or mutated. Shown are hu MN-E6 scFv-Fc-wt, hu MN-E6 scFv-Fc-hingeless, and hu MN-C3 scFv-Fc is shown (B). All bind to the PSMGFR peptide of the MUC1* extracellular domain.

[3] = target: T4, MUC1-41TR (MUC1 with an extracellular domain truncated after 41 tandem repeats) (Homo sapiens (Human), UniProt P15941 24-1255); test: CAR T co-culture, photographs; no T cell induced clustering
T4 construct: only minimally cleaved to MUC1*; also called HCT-MUC1-41TR; HCT-MUC1-18
Procedure: FIGS. 75A-75P show photographs of a CAR T co-culture assay in which the targeting antibody fragment of the CAR is huMNC2scFv wherein CAR44 has a CD8 transmembrane domain, followed by 41BB-3zeta and CAR50 has a CD4 transmembrane domain, followed by 41BB-3zeta. […] The HCT-MUC1-41TR cancer cells were also incubated with conditioned media from cells transfected with MMP9 or ADAM17 before co-culture with the CAR T cells. Conditioned media of the MMP9 or ADAM17 expressing cells were also incubated with APMA which is an activator of those cleavage enzymes. The images shown are an overlay of the 4× bright field image and the fluorescent image of the same showing cancer cells dyed with a red CMTMR lipophilic dye. FIGS. 75A, 75E, 75I, 75M show photographs of cells co-cultured with untransduced human T cells. FIGS. 75B, 75F, 75J, 75N show photographs of cells co-cultured with human T cells transduced with anti-MUC1* CAR44 at an MOI of 10. FIGS. 75C, 75G, 75K, 75O show photographs of cells co-cultured with human T cells transduced with anti-MUC1* CAR50 at an MOI of 10. FIGS. 75D, 75H, 75L, 75P show photographs of cells co-cultured with human T cells transduced with anti-MUC1* CAR44 at an MOI of 50, which increases transduction efficiency. […] There is no T cell induced clustering and the number of cancer cells has not decreased. […]

[4] = target: B5; test: ELISA on immobilized N-10 and C-10 peptides
[5] = target: T1, PSMGFR peptide (Primary Sequence of the …); test: ELISA on immobilized PSMGFR, N-10 and C-10 peptides
Procedure: FIGS. 22A-22C show graphs of ELISAs wherein the assay plate surface was immobilized with either PSMGFR peptide, PSMGFR minus 10 amino acids from the N-terminus or minus 10 amino acids from the C-terminus. The MN-C3 antibody variants were then assayed for binding to the various MUC1* peptides. A) Purified mouse monoclonal MN-C3 antibody; B) Impure humanized MN-C3 antibody; and C) the humanized MN-C3 scFv-Fc. ELISAs show binding to the PSMGFR peptide as well as to certain deletion peptides.

[6] = target: T2, PSMGFR minus 10 amino acids from the …; test: selection criteria, FIGS. 3A-3C named
Procedure: (§1) FIGS. 3A-3C show results of competitive ELISA assays. The PSMGFR MUC1* peptide is immobilized on the plate and dimeric NM23-H1, aka NME1, is added either alone or after the MN-E6 antibody has been added (A). The same experiment was performed wherein NM23-H7, NME7-AB, is added alone or after MN-E6 has been added (B). […] In a similar experiment (C), PSMGFR or PSMGFR minus 10 amino acids from the N-terminus, aka N-10, is immobilized on the plate. Dimeric NM23-H1 is then added. Anti-MUC1* antibodies MN-E6, MN-C2, MN-C3 or MN-C8 are then tested for their ability to compete off the NM23-H1.

[7] = target: T1, PSMGFR peptide (Primary Sequence of the …); test: competitive ELISA on immobilized PSMGFR or N-10 peptide
Procedure: as §1

dimeric NME1 = target: T5, dimeric NME1 (human, UniProt P15531 1-152, limits assumed); test: ELISA on immobilized peptide
T5 construct: used as a dimer; also called dimeric NM23-H1; NM23-H1 dimers

NME7-AB = target: T3, NME7-AB; test: ELISA on immobilized peptide
[8] = target: T1, PSMGFR peptide (Primary Sequence of the …); test: ELISA, surface coated with PSMGFR peptide or a control peptide
Procedure: Humanized MN-C2 scFv is then incubated with the surface, washed and detected according to standard methods.

T4 sequence (P15941 other isoform, or with tags, fused parts or gaps limits assumed): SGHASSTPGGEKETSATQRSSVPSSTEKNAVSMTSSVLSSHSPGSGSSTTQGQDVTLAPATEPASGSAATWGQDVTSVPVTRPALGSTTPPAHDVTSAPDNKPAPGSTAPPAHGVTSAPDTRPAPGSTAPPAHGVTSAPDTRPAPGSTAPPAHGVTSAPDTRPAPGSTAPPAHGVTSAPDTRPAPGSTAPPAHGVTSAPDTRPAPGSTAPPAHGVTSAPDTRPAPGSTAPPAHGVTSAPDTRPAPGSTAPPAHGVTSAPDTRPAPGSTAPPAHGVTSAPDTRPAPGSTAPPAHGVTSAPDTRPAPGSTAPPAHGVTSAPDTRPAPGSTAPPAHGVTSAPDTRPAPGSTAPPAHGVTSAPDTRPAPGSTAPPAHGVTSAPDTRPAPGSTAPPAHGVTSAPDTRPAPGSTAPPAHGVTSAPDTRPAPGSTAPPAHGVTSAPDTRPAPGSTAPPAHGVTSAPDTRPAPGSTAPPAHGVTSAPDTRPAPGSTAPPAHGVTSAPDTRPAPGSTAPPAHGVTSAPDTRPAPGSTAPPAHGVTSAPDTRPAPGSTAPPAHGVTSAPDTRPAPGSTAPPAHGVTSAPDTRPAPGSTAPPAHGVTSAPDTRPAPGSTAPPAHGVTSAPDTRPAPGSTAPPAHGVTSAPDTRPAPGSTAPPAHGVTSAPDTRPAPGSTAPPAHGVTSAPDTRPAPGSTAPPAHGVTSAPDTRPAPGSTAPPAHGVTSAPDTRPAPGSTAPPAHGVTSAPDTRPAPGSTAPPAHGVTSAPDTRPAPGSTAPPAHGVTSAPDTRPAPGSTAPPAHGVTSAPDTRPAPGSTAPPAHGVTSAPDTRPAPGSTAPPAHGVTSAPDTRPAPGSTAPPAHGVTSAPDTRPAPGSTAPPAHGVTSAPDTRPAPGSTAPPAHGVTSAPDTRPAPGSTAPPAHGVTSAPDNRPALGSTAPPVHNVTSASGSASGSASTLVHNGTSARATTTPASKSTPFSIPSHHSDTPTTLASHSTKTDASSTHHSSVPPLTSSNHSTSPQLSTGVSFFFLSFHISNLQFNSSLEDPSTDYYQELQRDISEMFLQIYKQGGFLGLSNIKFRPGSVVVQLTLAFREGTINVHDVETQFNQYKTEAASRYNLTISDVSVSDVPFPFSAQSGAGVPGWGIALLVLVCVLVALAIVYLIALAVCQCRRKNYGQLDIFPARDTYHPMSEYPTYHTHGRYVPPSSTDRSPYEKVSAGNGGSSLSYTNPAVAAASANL
T5 sequence (P15531 whole entry): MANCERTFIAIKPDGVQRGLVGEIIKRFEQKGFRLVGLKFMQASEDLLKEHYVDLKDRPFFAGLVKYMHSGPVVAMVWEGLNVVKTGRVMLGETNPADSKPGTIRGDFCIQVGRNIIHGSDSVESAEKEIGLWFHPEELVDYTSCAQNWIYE
Chain of MUC1-41TR (MUC1 with an extracellular domain truncated after 41 tandem repeats) (Homo sapiens (Human)) (P15941 other isoform, or with tags, fused parts or gaps limits assumed): as the sequence (P15941 other isoform, or with tags, fused parts or gaps limits assumed) above

- percent of cells positive [1]: 95%
Molecule: VU4H5 (antibody)

Molecule: B1
- binding result [2]: binds

Molecule: B2
- binding result [3]: no binding

Molecule: B3
- binding result [4]: binds
- binding result [5]: binds

Molecule: B4
- binding result [6]: binds
- binding result [7]: binds

Molecule: B5
- binding result (dimeric NME1): no binding
- binding result (NME7-AB): no binding

Molecule: B6
- binding result [5]: binds

Molecule: B7
- binding result [3]: no binding

Molecule: B8
- EC50 [8]: ~333 nM

Molecule: B9
- binding result [6]: binds
- binding result [7]: binds
